For data set [1], the target named is HHV-8 gH/gL ectodomain complex (insect cell, for crystallization) (human herpesvirus 8 (HHV-8)) (UniProt F5HAK9). Kind of data set: SEC-MALS. In general terms: SEC sorts molecules by how far they enter the pores of the column.
Data set [2] concerns the target EphA2 LBD (res. 27 to 202), wild type (human, UniProt P29317 27-202). The experiment in a line: BLI. Conditions: both partners purified.
Data set [3] deals with T1, EphA2 ectodomain (res. 27 to 534), wild type (human, UniProt P29317 27-534).
T1 construct: also called WT EphA2 ectodomain
The experiment in a line: BLI. Conditions: both partners purified.

The data set “crystal structure” concerns the molecule itself. Kind of data set: crystal structure.

What is called stoichiometry N is a count of units in the complex or per binding partner. One may read the Kd as the equilibrium constant for the complex coming apart.

HHV-8 gH/gL ectodomain complex (insect cell, for crystallization) (human herpesvirus 8 (HHV-8)), sequence (F5HAK9 whole entry, looked up, the tested form may be a part, one chain of several): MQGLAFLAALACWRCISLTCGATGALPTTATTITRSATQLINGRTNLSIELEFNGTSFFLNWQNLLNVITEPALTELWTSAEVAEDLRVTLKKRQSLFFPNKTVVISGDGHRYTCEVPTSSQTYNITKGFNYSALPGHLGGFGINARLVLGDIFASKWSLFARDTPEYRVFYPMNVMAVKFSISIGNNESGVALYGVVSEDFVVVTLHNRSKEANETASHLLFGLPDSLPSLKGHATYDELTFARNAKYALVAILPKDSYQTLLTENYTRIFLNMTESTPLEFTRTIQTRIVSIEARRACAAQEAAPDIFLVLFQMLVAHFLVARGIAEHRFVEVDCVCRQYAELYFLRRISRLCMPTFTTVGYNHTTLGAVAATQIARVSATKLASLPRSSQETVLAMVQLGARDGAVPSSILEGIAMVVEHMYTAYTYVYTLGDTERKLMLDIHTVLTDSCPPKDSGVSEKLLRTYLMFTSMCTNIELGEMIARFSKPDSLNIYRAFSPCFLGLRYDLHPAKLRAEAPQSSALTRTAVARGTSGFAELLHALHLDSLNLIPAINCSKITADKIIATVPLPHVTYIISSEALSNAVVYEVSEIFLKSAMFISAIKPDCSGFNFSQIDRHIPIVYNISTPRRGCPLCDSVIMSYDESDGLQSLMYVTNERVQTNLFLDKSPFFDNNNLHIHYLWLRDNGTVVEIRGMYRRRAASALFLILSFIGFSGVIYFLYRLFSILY
T1 sequence (P29317 27-534): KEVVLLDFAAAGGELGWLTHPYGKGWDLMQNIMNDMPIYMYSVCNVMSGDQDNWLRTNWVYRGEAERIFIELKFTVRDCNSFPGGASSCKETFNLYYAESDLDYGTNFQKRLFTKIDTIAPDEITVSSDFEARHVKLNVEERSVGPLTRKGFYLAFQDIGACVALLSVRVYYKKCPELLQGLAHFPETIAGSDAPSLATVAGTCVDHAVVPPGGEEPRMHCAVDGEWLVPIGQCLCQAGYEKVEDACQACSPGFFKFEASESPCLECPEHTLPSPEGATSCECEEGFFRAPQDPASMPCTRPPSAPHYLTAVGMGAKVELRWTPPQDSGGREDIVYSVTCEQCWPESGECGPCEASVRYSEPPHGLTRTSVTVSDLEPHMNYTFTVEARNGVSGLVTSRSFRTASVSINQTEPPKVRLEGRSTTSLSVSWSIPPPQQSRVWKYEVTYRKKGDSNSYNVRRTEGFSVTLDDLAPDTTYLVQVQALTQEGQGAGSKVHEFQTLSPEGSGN

The molecule “EphA2 ectodomain (res. 27 to 534), wild type (from UniProt P29317 27-534) (domain or fragment)” registered a stoichiometry N in data set [1] of 1. The molecule “EphA2 ligand-binding domain (residues 23 to 202), insect cell (from UniProt P29317 23-202) (domain or fragment)” showed a stoichiometry N in data set [1] of 1.

B1: HHV-8 gH^his/gL^st wild type (mammalian cells) (complex)
chain 1: LPTTATTITRSATQLINGRTNLSIELEFNGTSFFLNWQNLLNVITEPALTELWTSAEVAEDLRVTLKKRQSLFFPNKTVVISGDGHRYTCEVPTSSQTYNITKGFNYSALPGHLGGFGINARLVLGDIFASKWSLFARDTPEYRVFYPMNVMAVKFSISIGNNESGVALYGVVSEDFVVVTLHNRSKEANETASHLLFGLPDSLPSLKGHATYDELTFARNAKYALVAILPKDSYQTLLTENYTRIFLNMTESTPLEFTRTIQTRIVSIEARRACAAQEAAPDIFLVLFQMLVAHFLVARGIAEHRFVEVDCVCRQYAELYFLRRISRLCMPTFTTVGYNHTTLGAVAATQIARVSATKLASLPRSSQETVLAMVQLGARDGAVPSSILEGIAMVVEHMYTAYTYVYTLGDTERKLMLDIHTVLTDSCPPKDSGVSEKLLRTYLMFTSMCTNIELGEMIARFSKPDSLNIYRAFSPCFLGLRYDLHPAKLRAEAPQSSALTRTAVARGTSGFAELLHALHLDSLNLIPAINCSKITADKIIATVPLPHVTYIISSEALSNAVVYEVSEIFLKSAMFISAIKPDCSGFNFSQIDRHIPIVYNISTPRRGCPLCDSVIMSYDESDGLQSLMYVTNERVQTNLFLDKSPFFDNNNLHIHYLWLRDNGTVVEIRGMYRRRAAS
chain 2: YVALPCCAIQASAASTLPLFFAVHSIHFADPNHCNGVCIAKLRSKTGDITVETCVNGFNLRSFLVAVVRRLGSWASQENLRLLWYLQRSLTAYTVGFNATTADSSIHNVNIIIISVGKAMNRTGSVSGSQTRAKSSSRRAHAGQKGK
In the case of B1, the Kd in data set [2] and in data set [3] was less than 1 nM throughout.

B2: EphA2 ligand-binding domain (residues 23 to 202), insect cell (domain or fragment, human, UniProt P29317 23-202, looked up)
chain: AAQGKEVVLLDFAAAGGELGWLTHPYGKGWDLMQNIMNDMPIYMYSVCNVMSGDQDNWLRTNWVYRGEAERIFIELKFTVRDCNSFPGGASSCKETFNLYYAESDLDYGTNFQKRLFTKIDTIAPDEITVSSDFEARHVKLNVEERSVGPLTRKGFYLAFQDIGACVALLSVRVYYKKCP
notes: also called EphA2 LBD; LBD
As for B2, in “crystal structure”, the binding result is “binds”.
